Measured values taken from PMC7321842 (Nature, 2020).
Changes are numbered by the printed parent chain. One block for each binder: values may come before it.

Key:
[1] = target: the molecule itself; assay: negative stain electron microscopy of polymers
[2] = target: T1, full-length, human CHMP7 (human, UniProt Q8WUX9 1-453); assay: co-sedimentation
T1 sequence (looked up): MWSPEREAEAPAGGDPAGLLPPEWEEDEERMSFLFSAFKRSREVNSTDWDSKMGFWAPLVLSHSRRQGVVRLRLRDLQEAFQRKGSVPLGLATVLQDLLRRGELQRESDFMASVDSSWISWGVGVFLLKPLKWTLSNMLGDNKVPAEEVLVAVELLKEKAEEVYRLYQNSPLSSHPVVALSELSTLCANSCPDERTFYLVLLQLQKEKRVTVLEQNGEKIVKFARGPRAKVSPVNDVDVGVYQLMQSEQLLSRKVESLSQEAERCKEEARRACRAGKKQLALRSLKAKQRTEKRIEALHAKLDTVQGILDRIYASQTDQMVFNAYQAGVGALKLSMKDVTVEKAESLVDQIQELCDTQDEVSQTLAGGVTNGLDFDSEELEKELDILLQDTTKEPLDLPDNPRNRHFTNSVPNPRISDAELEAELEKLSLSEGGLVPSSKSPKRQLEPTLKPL

[3] = target: T2, CHMP7_(R270E+V339D) (human, UniProt Q8WUX9 1-453, R270E | V339D); assay: co-sedimentation
T2 sequence (looked up): T1 sequence (looked up) with R270E, V339D

[4] = target: T3, CHMP7_(R270E+I312E) (human, UniProt Q8WUX9 1-453, R270E | I312E); assay: co-sedimentation
T3 sequence (looked up): T1 sequence (looked up) with R270E, I312E

[5] = target: T4, CHMP7_(I312E+V339D) (human, UniProt Q8WUX9 1-453, I312E | V339D); assay: co-sedimentation
T4 sequence (looked up): T1 sequence (looked up) with I312E, V339D

B1: CHMP7_(ESCRT-III) (AA:229–453) (domain or fragment, human, UniProt Q8WUX9 229-453, looked up)
chain: AKVSPVNDVDVGVYQLMQSEQLLSRKVESLSQEAERCKEEARRACRAGKKQLALRSLKAKQRTEKRIEALHAKLDTVQGILDRIYASQTDQMVFNAYQAGVGALKLSMKDVTVEKAESLVDQIQELCDTQDEVSQTLAGGVTNGLDFDSEELEKELDILLQDTTKEPLDLPDNPRNRHFTNSVPNPRISDAELEAELEKLSLSEGGLVPSSKSPKRQLEPTLKPL
binding result [1]: binds

stoichiometry N [2]: 1
binding result [3]: binds
binding result [4]: binds
binding result [5]: binds
B2: WH domain of LEM2 (LEM2WH; AA:395–503) (domain or fragment, human, UniProt Q8NC56 395-503, looked up)
chain: ILLKYRWRKLEEEEQAMYEMVKKIIDVVQDHYVDWEQDMERYPYVGILHVRDSLIPPQSRRRMKRVWDRAVEFLASNESRIQTESHRVAGEDMLVWRWTKPSSFSDSER
